Substitutions are numbered along the chain they refer to. Read-outs that look alike come from different tables or passages of the source.
Assays:
Assay in all cases: enzyme inhibition
human factor XIIa [1] = target: T1, human factor XIIa (human, UniProt P00748 20-615, biotinylated with Biotin Ester (Zymed); sites not stated)
T1 chain: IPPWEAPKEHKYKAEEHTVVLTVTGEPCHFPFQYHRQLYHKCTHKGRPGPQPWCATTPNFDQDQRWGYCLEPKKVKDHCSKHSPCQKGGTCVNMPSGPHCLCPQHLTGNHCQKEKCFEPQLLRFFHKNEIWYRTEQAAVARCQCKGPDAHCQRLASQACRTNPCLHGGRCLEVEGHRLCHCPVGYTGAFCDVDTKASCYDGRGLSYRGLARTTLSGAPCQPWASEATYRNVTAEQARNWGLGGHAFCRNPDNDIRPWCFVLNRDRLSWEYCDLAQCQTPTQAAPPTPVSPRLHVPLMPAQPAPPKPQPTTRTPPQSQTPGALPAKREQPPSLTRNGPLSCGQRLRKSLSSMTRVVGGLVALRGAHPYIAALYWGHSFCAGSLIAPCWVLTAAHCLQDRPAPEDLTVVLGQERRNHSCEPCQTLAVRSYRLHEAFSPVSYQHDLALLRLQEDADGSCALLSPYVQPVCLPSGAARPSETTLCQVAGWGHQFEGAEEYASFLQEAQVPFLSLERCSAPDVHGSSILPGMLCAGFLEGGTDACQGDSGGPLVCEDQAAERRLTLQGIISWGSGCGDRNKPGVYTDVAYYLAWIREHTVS

human factor Xa [2] = target: T2, human factor Xa (human, UniProt P00742 41-179; P00742 235-488)
T2 chain 1: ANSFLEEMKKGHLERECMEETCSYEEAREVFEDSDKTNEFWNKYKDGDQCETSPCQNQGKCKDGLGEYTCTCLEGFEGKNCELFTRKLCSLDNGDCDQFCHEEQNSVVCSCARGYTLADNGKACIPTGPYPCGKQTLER
T2 chain 2: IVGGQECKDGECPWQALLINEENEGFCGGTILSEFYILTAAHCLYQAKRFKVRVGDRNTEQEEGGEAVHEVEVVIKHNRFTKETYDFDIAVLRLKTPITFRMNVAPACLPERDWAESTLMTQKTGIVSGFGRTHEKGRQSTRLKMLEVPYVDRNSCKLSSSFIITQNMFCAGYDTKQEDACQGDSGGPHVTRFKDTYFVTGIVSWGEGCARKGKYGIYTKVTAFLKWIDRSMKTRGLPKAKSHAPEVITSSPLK

human plasma kallikrein [3] = target: T3, human plasma kallikrein (human, UniProt P03952 20-638)
T3 sequence (P03952 20-638): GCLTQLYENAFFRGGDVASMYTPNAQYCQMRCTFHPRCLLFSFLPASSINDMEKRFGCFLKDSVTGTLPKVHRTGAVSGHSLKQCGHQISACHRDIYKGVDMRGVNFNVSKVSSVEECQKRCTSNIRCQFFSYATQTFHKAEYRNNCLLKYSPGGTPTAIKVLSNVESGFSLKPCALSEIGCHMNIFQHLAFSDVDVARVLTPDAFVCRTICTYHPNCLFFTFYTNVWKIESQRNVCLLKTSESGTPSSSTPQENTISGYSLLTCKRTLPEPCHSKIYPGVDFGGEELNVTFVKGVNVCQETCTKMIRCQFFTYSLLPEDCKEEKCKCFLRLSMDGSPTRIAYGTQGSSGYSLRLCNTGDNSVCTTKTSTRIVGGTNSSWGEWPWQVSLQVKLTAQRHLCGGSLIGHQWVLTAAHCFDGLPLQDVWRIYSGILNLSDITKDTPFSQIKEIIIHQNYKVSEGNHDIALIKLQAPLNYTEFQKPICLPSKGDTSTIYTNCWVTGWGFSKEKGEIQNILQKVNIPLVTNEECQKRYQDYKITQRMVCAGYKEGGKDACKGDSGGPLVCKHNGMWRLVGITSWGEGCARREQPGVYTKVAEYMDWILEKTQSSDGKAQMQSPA

human plasma kallikrein [4] = target: T3, human plasma kallikrein; remark: listed apart in the source
human plasma kallikrein [5] = target: T3, human plasma kallikrein; remark: listed apart in the source
human factor Xa [6] = target: T2, human factor Xa
human plasma kallikrein [7] = target: T3, human plasma kallikrein; remark: listed apart in the source
human factor XIIa [8] = target: T1, human factor XIIa
human factor XIIa [9] = target: T1, human factor XIIa

B1: TW118 (protein)
chain: EVCSEQAETGPCRAMISRWYFDVTEGKCAPFFYGGCRGNRNNFDTEEYCMAVCGSAI
Human factor XIIa [1]
  Ki: 13000 nM
Human factor Xa [2]
  Ki: 68 nM
Human plasma kallikrein [3]
  Ki: 6 nM

B2: TW106 (protein)
chain: B1 chain with M15R, R37G
Human plasma kallikrein [4]
  Ki: 560 nM

B3: TW124 (protein)
chain: B1 chain with R37G, R40S
Human plasma kallikrein [5]
  Ki: 64 nM

B4: TW101 (protein)
chain: B1 chain with R13K, R37G
Human plasma kallikrein [4]
  Ki: 2000 nM

B5: TW116 (protein)
chain: B1 chain with S17I, R37G
Human factor Xa [6]
  Ki: 806 nM
Human plasma kallikrein [7]
  Ki: 145 nM

B6: TW6163 (protein)
chain: EVVREVCSEQAETGPCRAMHSRWYFDVTEGKCAPFFYGGCGGNRNNFDTEEYCMAVCGSAI
Human factor XIIa [8]
  Ki: 4530 nM
Human factor Xa [6]
  Ki: 457 nM
Human plasma kallikrein [7]
  Ki: 4.7 nM

B7: DD103 (protein)
chain: B6 chain with H20I, S21F
Human factor XIIa [8]
  Ki: 2130 nM
Human factor Xa [6]
  Ki: 110 nM
Human plasma kallikrein [7]
  Ki: 17 nM

B8: AL301 (protein)
chain: B6 chain with H20I, F36L
Human factor XIIa [1]
  Ki: 1560 nM
Human plasma kallikrein [3]
  Ki: 216 nM

B9: TW6211 (protein)
chain: B6 chain with H20I, R22K
Human factor XIIa [1]
  Ki: 402 nM
Human plasma kallikrein [3]
  Ki: 184 nM

B10: BG028 (protein)
chain: B6 chain with M19L, H20I, S21Y
Human factor XIIa [9]
  Ki: 93.8 nM

B11: TW6165 (protein)
chain: B6 chain with M19A, H20I, S21W
Human factor XIIa [9]
  Ki: 206 nM

B12: BG001 (protein)
chain: B6 chain with H20L
Human factor XIIa [8]
  Ki: 489 nM
Human factor Xa [6]
  Ki: 204 nM
Human plasma kallikrein [7]
  Ki: 38 nM

B13: TW6181 (protein)
chain: B6 chain with H20K
Human factor XIIa [8]
  Ki: 1510 nM
Human plasma kallikrein [7]
  Ki: 150 nM

B14: TW6154 (protein)
chain: B6 chain with H20I, G41L
Human factor XIIa [1]
  Ki: 915 nM
Human factor Xa [2]
  Ki: 39 nM
Human plasma kallikrein [3]
  Ki: 11 nM

B15: TW6149 (protein)
chain: B6 chain with H20I, R44A
Human plasma kallikrein [5]
  Ki: 54 nM

B16: TW6138 (protein)
chain: B6 chain with H20I, G41K
Human factor XIIa [1]
  Ki: 921 nM
Human factor Xa [2]
  Ki: 309 nM
Human plasma kallikrein [3]
  Ki: 18 nM

B17: TW6172 (protein)
chain: B6 chain with H20A
Human factor Xa [6]
  Ki: 1460 nM
Human plasma kallikrein [7]
  Ki: 315 nM

B18: TW6157 (protein)
chain: B6 chain with H20I, G41S
Human factor XIIa [1]
  Ki: 511 nM
Human factor Xa [2]
  Ki: 168 nM
Human plasma kallikrein [3]
  Ki: 40 nM

B19: AL302 (protein)
chain: B6 chain with H20I, F36G
Human factor Xa [2]
  Ki: 316 nM
Human plasma kallikrein [3]
  Ki: 39 nM

B20: TW6182 (protein)
chain: B6 chain with H20I, S21H
Human factor XIIa [8]
  Ki: 752 nM
Human plasma kallikrein [7]
  Ki: 36 nM

B21: TW6158 (protein)
chain: B6 chain with H20I, G41T
Human plasma kallikrein [3]
  Ki: 29 nM

B22: TW6141 (protein)
chain: B6 chain with H20I, G41Q
Human plasma kallikrein [3]
  Ki: 42 nM

B23: TW6140 (protein)
chain: B6 chain with H20I, G41N
Human factor XIIa [1]
  Ki: 475 nM
Human plasma kallikrein [3]
  Ki: 35 nM

B24: DD128 (protein)
chain: B6 chain with H20I, R22L
Human factor Xa [2]
  Ki: 37 nM
Human plasma kallikrein [3]
  Ki: 44 nM

B25: DD102 (protein)
chain: B6 chain with H20I, S21P
Human factor XIIa [8]
  Ki: 315 nM
Human plasma kallikrein [7]
  Ki: 16 nM

B26: TW6194 (protein)
chain: B6 chain with H20I, S21E
Human plasma kallikrein [7]
  Ki: 70.8 nM

B27: TW6180 (protein)
chain: B6 chain with H20F
Human factor XIIa [8]
  Ki: 885 nM
Human factor Xa [6]
  Ki: 39 nM
Human plasma kallikrein [7]
  Ki: 70 nM

B28: DD105 (protein)
chain: B6 chain with H20I, S21W
Human factor XIIa [8]
  Ki: 198 nM
Human factor Xa [6]
  Ki: 320 nM
Human plasma kallikrein [7]
  Ki: 18 nM

B29: TW6148 (protein)
chain: B6 chain with H20I, N43A
Human plasma kallikrein [5]
  Ki: 40 nM

B30: BG012 (protein)
chain: B6 chain with H20I, R22T
Human factor XIIa [8]
  Ki: 40 nM
Human factor Xa [6]
  Ki: 116 nM

B31: TW6210 (protein)
chain: B6 chain with H20I, S21Q
Human factor XIIa [8]
  Ki: 277 nM
Human plasma kallikrein [7]
  Ki: 54 nM

B32: TW6155 (protein)
chain: B6 chain with H20I, G41M
Human factor Xa [2]
  Ki: 27 nM
Human plasma kallikrein [3]
  Ki: 11 nM

B33: TW6166 (protein)
chain: B6 chain with M19A, H20I, S21Y
Human factor XIIa [9]
  Ki: 73 nM

B34: DD104 (protein)
chain: B6 chain with H20I, S21Y
Human factor XIIa [8]
  Ki: 237 nM
Human factor Xa [6]
  Ki: 345 nM
Human plasma kallikrein [7]
  Ki: 15 nM

B35: DD100 (protein)
chain: B6 chain with H20I, G41C
Human plasma kallikrein [3]
  Ki: 15 nM

B36: TW6142 (protein)
chain: B6 chain with H20I, F36V
Human factor XIIa [1]
  Ki: 7970 nM
Human factor Xa [2]
  Ki: 225 nM
Human plasma kallikrein [3]
  Ki: 18 nM

B37: CL006 (protein)
chain: B6 chain with H20I, R22A
Human factor XIIa [8]
  Ki: 89600 nM
Human factor Xa [6]
  Ki: 133 nM
Human plasma kallikrein [7]
  Ki: 110 nM

B38: TW6209 (protein)
chain: B6 chain with H20I, R22H
Human factor XIIa [1]
  Ki: 184 nM
Human factor Xa [2]
  Ki: 613 nM
Human plasma kallikrein [3]
  Ki: 81 nM

B39: TW6168 (protein)
chain: B6 chain with H20I, S21L
Human factor XIIa [8]
  Ki: 3520 nM
Human factor Xa [6]
  Ki: 395 nM
Human plasma kallikrein [7]
  Ki: 25.8 nM

B40: DD111 (protein)
chain: B6 chain with M19S, H20I
Human plasma kallikrein [4]
  Ki: 5.6 nM

Reference: patent US6906033 (dated 2005)
